This assay deals with survivin (UniProt O15392). Kind of assay: method not stated.

One may read the Kd as the constant that tells how readily two partners part at equilibrium. Low values mean a tighter complex, high ones a looser complex.

B1: mAb 2C2E7 (antibody, V domains shown)
VH: QIQLVQSGPELKKPGETVKISCKASGYTFTTYGMSWVKQAPGRGLKWMGWINPYSGVPTYAVDFKGRFAFSLETSASTAYLQINNLKNEDTATYFCARGGRRGDFGYWGQGTTLTVSS
VL: QIGLTQSPAIMSASPGEKVTMTCSASSSISYMHWYQQKPGTSPKTWIYDTSKLASGVPARFSGSGSGTSYSLTISSMEAEDAATYYCHQRSSHHTFGGGTKLEIK
Regarding B1, the Kd was 0.56 nM.

For the origin of these results see patent US20240317844A1.
